This note sets out measurements from patent US20240409614.

The target of one data set is T1, A1AT-M351V/L353A/M358V.
T1 chain: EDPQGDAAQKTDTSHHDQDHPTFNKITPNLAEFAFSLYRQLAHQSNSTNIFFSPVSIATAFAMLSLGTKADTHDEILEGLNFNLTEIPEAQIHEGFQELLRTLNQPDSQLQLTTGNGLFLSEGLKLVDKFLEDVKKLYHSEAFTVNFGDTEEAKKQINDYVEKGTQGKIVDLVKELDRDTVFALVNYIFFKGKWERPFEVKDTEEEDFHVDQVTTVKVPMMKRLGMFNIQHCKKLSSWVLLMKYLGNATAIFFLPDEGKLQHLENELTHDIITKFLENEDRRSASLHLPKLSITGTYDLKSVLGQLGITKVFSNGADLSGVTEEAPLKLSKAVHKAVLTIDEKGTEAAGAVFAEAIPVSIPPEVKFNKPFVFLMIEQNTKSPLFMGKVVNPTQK

Another data set has as its target T2, A1AT-M351V/L353S/M358V.
T2 chain: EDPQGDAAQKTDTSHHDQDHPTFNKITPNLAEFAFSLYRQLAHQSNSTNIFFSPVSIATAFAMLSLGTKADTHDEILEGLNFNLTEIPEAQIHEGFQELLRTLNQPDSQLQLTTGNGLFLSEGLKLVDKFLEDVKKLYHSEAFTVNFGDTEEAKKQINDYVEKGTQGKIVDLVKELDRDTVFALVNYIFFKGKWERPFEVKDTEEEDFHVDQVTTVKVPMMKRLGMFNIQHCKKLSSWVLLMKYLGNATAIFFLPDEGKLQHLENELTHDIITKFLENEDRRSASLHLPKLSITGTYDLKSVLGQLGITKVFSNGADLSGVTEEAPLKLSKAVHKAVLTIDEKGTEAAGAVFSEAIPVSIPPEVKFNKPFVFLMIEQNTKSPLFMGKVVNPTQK

In a further data set the target is T3, A1AT-M351V/L353T/M358V.
T3 chain: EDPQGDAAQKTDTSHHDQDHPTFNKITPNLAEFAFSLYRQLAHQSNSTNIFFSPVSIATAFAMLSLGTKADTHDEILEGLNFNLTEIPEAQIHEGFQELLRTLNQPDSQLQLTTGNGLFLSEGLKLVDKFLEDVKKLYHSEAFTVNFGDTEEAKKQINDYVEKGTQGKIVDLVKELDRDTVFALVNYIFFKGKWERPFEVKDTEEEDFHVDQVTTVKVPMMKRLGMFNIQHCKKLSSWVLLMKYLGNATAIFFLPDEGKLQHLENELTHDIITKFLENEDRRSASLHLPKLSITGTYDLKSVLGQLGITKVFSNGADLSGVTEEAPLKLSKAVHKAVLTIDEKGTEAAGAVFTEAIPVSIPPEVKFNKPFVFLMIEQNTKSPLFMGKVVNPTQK

The target in data set [1] is wildtype alpha-1-antitrypsin (A1AT).

B1: MMP-9 (ProSpec, cat #enz-438) (protein)
chain: APRQRQSTLVLFPGDLRTNLTDRQLAEEYLYRYGYTRVAEMRGESKSLGPALLLLQKQLSLPETGELDSATLKAMRTPRCGVPDLGRFQTFEGDLKWHHHNITYWIQNYSEDLPRAVIDDAFARAFALWSAVTPLTFTRVYSRDADIVIQFGVAEHGDGYPFDGKDGLLAHAFPPGPGIQGDAHFDDDELWSLGKGVVVPTRFGNADGAACHFPFIFEGRSYSACTTDGRSDGLPWCSTTANYDTDDRFGFCPSERLYTQDGNADGKPCQFPFIFQGQSYSACTTDGRSDGYRWCATTANYDRDKLFGFCPTRADSTVMGGNSAGELCVFPFTFLGKEYSTCTSEGRGDGRLWCATTSNFDSDKKWGFCPDQGYSLFLVAAHEFGHALGLDHSSVPEALMYPMYRFTEGPPLHKDDVNGIRHLYGPRPEPEPRPPTTTTPQPTAPPTVCPTGPPTVHPSERPTAGPTGPPSAGPTGPPTAGPSTATTVPLSPVDDACNVNIFDAIAEIGNQLYLFKDGKYWRFSEGRGSRPQGPFLIADKWPALPRKLDSVFEERLSKKLFFFSGRQVWVYTGASVLGPRRLDKLGLGADVAQVTGALRSGRGKMLLFSGRRLWRFDVKAQMVDPRSASEVDRMFPGVPLDTHDVFQYREKAYFCQDRFYWRVSSRSELNQVDQVGYVTYDILQCPED
Take B1: the cleaved (%) after MMP-9 treatment (SDS-PAGE) amounted to 6% with A1AT-M351V/L353A/M358V; 0% with A1AT-M351V/L353S/M358V; 0% with A1AT-M351V/L353T/M358V; 25% with A1AT-M351V/M358V; 89% in data set [1]. Besides, the non-cleaved (%) after MMP-9 treatment (SDS-PAGE) was determined as 94% in the data set with A1AT-M351V/L353A/M358V; 100% in the data set with A1AT-M351V/L353S/M358V; 100% with A1AT-M351V/L353T/M358V; 75% with A1AT-M351V/M358V; 11% in data set [1].

B2: MMP-7 (ProSpec, cat #enz-271) (protein)
chain: YSLFPNSPKWTSKVVTYRIVSYTRDLPHITVDRLVSKALNMWGKEIPLHFRKVVWGTADIMIGFARGAHGDSYPFDGPGNTLAHAFAPGTGLGGDAHFDEDERWTDGSSLGINFLYAATHELGHSLGMGHSSDPNAVMYPTYGNGDPQNFKLSQDDIKGIQKLYGKRSNSRKK
For B2, the “proteolytic degradation by MMP-7 (SDS-PAGE, FIG. 4)” value in the data set with A1AT-L353A was “A0025 showed as little degradation by MMP-7 as A0028 and A0031”; in the data set with A1AT-L353A/M358V, “A0025 showed as little degradation by MMP-7 as A0028 and A0031”; in the data set with A1AT-M351V/L353A it was “A0025 showed as little degradation by MMP-7 as A0028 and A0031”. The cleaved (%) after MMP-7 treatment (SDS-PAGE) in the data set with A1AT-M351V/L353A/M358V came out at 0%; with A1AT-M351V/L353S/M358V, 0%; in the data set with A1AT-M351V/L353T/M358V it was 5%; in the data set with A1AT-M351V/M358V, 63%; in data set [1] it was 96%. Moreover, the non-cleaved (%) after MMP-7 treatment (SDS-PAGE) in the data set with A1AT-M351V/L353A/M358V worked out at 100%; with A1AT-M351V/L353S/M358V, 100%; with A1AT-M351V/L353T/M358V, 95%; with A1AT-M351V/M358V it was 37%; in data set [1], 4%.
